Data set [1] can be described thus: amyloid nucleation score (Sup35N fusion, yeast selection) (log enrichment); library NNK1; higher = more nucleation; inactive = no reads after selection. The method in brief: (§1)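 Peptides of 20 random codons, each fused to Sup35N, were expressed in psi-negative yeast. Cells were induced with 100 μM copper sulfate for 24 hours and grown 7 days at 30°C on medium lacking adenine and uracil, and plasmid inserts before and after selection were Illumina-sequenced. Nucleation scores are DiMSum log enrichments of output over input reads, centred on the mode score of non-aggregating sequences, and sequences under 100 input reads were excluded.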

Data set [2] in a line: amyloid nucleation score (Sup35N fusion, yeast selection) (log enrichment); library NNK2; higher = more nucleation; inactive = no reads after selection. The method in brief: as §1

± gives the uncertainty stated by the source.

In turn, GSIWED yielded an amyloid nucleation score in data set [1] of -0.778 ± 0.64.

In data set [1], GTGSSAVDVFSGLMCGTDVL yielded an amyloid nucleation score of -0.145 ± 0.46.

In data set [1], VYNAPGCVNRSDLVV displayed an amyloid nucleation score of -0.745 ± 2.4.

RELLGGVRNRLVYR gave an amyloid nucleation score in data set [1] of -0.192 ± 0.23.

Substance ASFRNRPCVQCPGLCILRLS came in with an amyloid nucleation score in data set [1] of 0.002 ± 0.24.

As to MLFRYRSPHTVWLIRLCMKQ, in data set [1], the amyloid nucleation score came out at 0.839 ± 0.56.

RLVSFKCFCFLFLIDFMQGV came in with an amyloid nucleation score in data set [1] of 0.495 ± 0.45.

Regarding SYHAYRG, in data set [2], the amyloid nucleation score is -0.064 ± 0.37.

RKIMNGKV registered an amyloid nucleation score in data set [2] of -0.414 ± 0.64.

In data set [2], VPFCGNNCSHCVRMSRLGRS showed an amyloid nucleation score of 0.719 ± 0.47.

FVLNYLI: the amyloid nucleation score in data set [2] was 0.709 ± 0.17.

As for NLPLL, the amyloid nucleation score in data set [2] was -0.027 ± 0.54.

VYHDHLKLWSKGTSRVAWAL: in data set [2], the amyloid nucleation score is 2.34 ± 0.16.

Take HSICSSRNTVIFMSENFRNR: the amyloid nucleation score in data set [2] came out at 4.99 ± 0.057.

TYVCDNTESYTCLWLL returned an amyloid nucleation score in data set [2] of 7.791 ± 0.038.

For WSKLYTFIFLASNKLLTWPC, in data set [2], the amyloid nucleation score entry was “inactive”.

In turn, CWARMWGYSKCHSRVFSYMS showed an amyloid nucleation score in data set [2] of -1.1 ± 0.55.

Turning to PLYPLCSHPYVGFVTHTISR, the amyloid nucleation score in data set [2] is -0.053 ± 1.

The substance ESLKINASSEQSRLVTRDTQ showed an amyloid nucleation score in data set [2] of -0.191 ± 0.61.

In data set [2], DYLVRGQEY returned an amyloid nucleation score of 0.357 ± 0.43.

Regarding KILGWT, the amyloid nucleation score in data set [2] was 0.836 ± 0.21.

Regarding FFLGDRIWL, the amyloid nucleation score result in data set [2] was “inactive”.

Regarding KIFFGNNRF, the amyloid nucleation score in data set [2] is 3.4 ± 0.13.

Turning to SLRNDGFNLDPVLHALFVEL, the amyloid nucleation score in data set [2] was -0.306 ± 0.63.

With IQKLRVRHDMISYTSEMSVN, the amyloid nucleation score in data set [2] was -0.218 ± 0.55.

As to SAFSFAIVIYFRLCKVGLVD, in data set [2], the amyloid nucleation score was -0.92 ± 1.1.

As to GTPRFEVNIMFHTVDS, the amyloid nucleation score in data set [2] was 1.57 ± 0.22.

As to NGGAVFCVHACYGFRGRYER, the amyloid nucleation score in data set [2] is 5.05 ± 0.045.

With TLLKHTSSTSIVYRRHALEI, the amyloid nucleation score in data set [2] amounted to 1.35 ± 0.29.

On to MSSMCNLFRYMFKLYVRSWV, for which the amyloid nucleation score in data set [2] is -0.681 ± 0.3.

The substance EITFLCSGKSDSDMYVGFAS displayed an amyloid nucleation score in data set [2] of 2.08 ± 0.072.

In turn, VRCIE displayed an amyloid nucleation score in data set [2] of -0.282 ± 0.28.

YMSGILASIRKSILQGRSRE: the amyloid nucleation score in data set [2] is -1.41 ± 0.49.

Substance WRYRHELEACWRHHSNSWYG displayed an amyloid nucleation score in data set [2] of 3.96 ± 0.052.

Consider RSFHVEYILM, for which, in data set [2], the amyloid nucleation score was found to be 3.23 ± 0.068.

MSLSLQKYFLWRPGRAPVVR: the amyloid nucleation score in data set [2] was -0.03 ± 0.63.

FWVMANYRH returned an amyloid nucleation score in data set [2] of 3.18 ± 0.047.

Consider ASDRGI, for which the amyloid nucleation score in data set [2] amounted to 0.532 ± 0.18.

In data set [2], NYYINDADGRLLARWLYKLF gave an amyloid nucleation score of -0.865 ± 0.25.

On to RNTNSANVKSCSMVRNRVWC, for which the amyloid nucleation score in data set [2] is 0.604 ± 0.66.

Substance NGYRNFIRGHDSRFRGVTTT gave an amyloid nucleation score in data set [2] of 4.66 ± 0.05.

For VKVGSSTRRGSGVPSGPKLG, the amyloid nucleation score in data set [2] was found to be 1.04 ± 0.52.

PYILRFRRDLRGFRI: the amyloid nucleation score in data set [2] was 0.449 ± 0.56.

The substance ALSNGNVLHGLSMLSYMHCW showed an amyloid nucleation score in data set [2] of -0.388 ± 1.1.

RDRRASYLVVASPTAGLHMV yielded an amyloid nucleation score in data set [2] of 3.34 ± 0.078.

The substance DFNLWPLC had an amyloid nucleation score in data set [2] of -0.373 ± 1.1.

The substance WVQHYCSEFLL had an amyloid nucleation score in data set [2] of -0.313 ± 0.63.

In the case of FIDRMKMLWGLKSWDFQCHW, the amyloid nucleation score in data set [2] came to 0.362 ± 0.45.

For the substance DVREFSSDYSQVGVEVLVFL, in data set [2], the amyloid nucleation score is 0.373 ± 0.42.

For the substance PYISWGSTGFVNAGRY, in data set [2], the amyloid nucleation score is 3.74 ± 0.072.

Take CFRKLQYISFYYTTWVILDA: the amyloid nucleation score result in data set [2] is “inactive”.

For INVFSYSL, the amyloid nucleation score in data set [2] turned out to be 2.58 ± 0.089.

On to KVRKYSEFSLQSQCDPLGRG, for which, in data set [2], the amyloid nucleation score came to 0.455 ± 0.5.

The substance CMNGPFTLTRPTARGRIRC returned an amyloid nucleation score in data set [2] of 0.32 ± 0.51.

RWCSVGNLVRSITR displayed an amyloid nucleation score in data set [2] of 0.464 ± 0.57.

Turning to MIGVYDGLRHNVEQGFVWCE, in data set [2], the amyloid nucleation score stood at 0.419 ± 0.51.

Turning to FFNLNQLMFKELSMRLGHRY, the amyloid nucleation score in data set [2] was 0.066 ± 0.74.

As for CLCGPRIGLSVFNYVYFGMG, in data set [2], the amyloid nucleation score stood at 4.2 ± 0.046.

In data set [2], CYLVYFSYKLHQI displayed an amyloid nucleation score of -1.43 ± 1.1.

As to YAGFVFFRTL, the amyloid nucleation score result in data set [2] is “inactive”.

Take KSVWLKVGCQPPIRFEFCEM: the amyloid nucleation score in data set [2] worked out at 0.037 ± 0.49.

As for VRDDCARWK, the amyloid nucleation score in data set [2] stood at 0.327 ± 0.45.

With WSLQSQGYRILDGYGV, the amyloid nucleation score in data set [2] is 0.6 ± 0.44.

Regarding DKMYVIIVGPLAAMENVNNT, the amyloid nucleation score in data set [2] came out at 0.024 ± 0.48.

In the case of IDLLFDFTDLMWLIYPVFLL, the amyloid nucleation score in data set [2] was -1.93 ± 0.75.

The substance SSSFLL had an amyloid nucleation score in data set [2] of -0.545 ± 0.76.

In data set [2], CFSHYHDSFLPGWYYSGNYV displayed an amyloid nucleation score of -0.788 ± 0.4.

In data set [2], VSGFFSDHA came in with an amyloid nucleation score of -1.06 ± 1.1.

Substance GRAPLSNNLMDSVTVESVHM yielded an amyloid nucleation score in data set [2] of -0.744 ± 0.28.

The values are drawn from the supplement of paper PMC12042874.
